{"source": "patent US20180086841A1", "about": "(Merck Sharp & Dohme, published 2018)", "binders": {"B1": {"name": "hCD27.15-6B (antibody, human IgG4 S228P, kappa, V domains shown)", "VH": "QVQLVQSGAEVKKPGASVKVSCKASGFIIKATYMHWVRQAPGQRLEWMGRIDPANGETKYDPKFQVRVTITADTSASTAYMELSSLRSEDTAVYYCARYAWYFDVWGQGTLVTVSS", "VL": "DIQMTQSPSSLSASVGDRVTITCRASENIYSFLAWYQQKPGKAPKLLIYHAKTLAEGVTSRFSGSGSGTDFTLTISSLQPEDSATYYCQHYYGSPLTFGQGTRLEIKR", "notes": "also called hCD27.15 (humanized 6B); humanized hCD27.15 (human IgG4, Clone 6B)"}}, "test_in_all_cases": "flow cytometry on CHO-K1 transfectants;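 also: Anti-hCD27 antibodies tested on transiently transfected CHO-K1 cells bearing hCD27 alanine mutants, 30 min at 4 °C primary incubation, FITC readout excluding debris, dead cells and doublets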", "key": {"N88A": {"biological_target": "T1, N88A", "T1 construct": "also called hCD27 N88A", "T1 receptor chain": "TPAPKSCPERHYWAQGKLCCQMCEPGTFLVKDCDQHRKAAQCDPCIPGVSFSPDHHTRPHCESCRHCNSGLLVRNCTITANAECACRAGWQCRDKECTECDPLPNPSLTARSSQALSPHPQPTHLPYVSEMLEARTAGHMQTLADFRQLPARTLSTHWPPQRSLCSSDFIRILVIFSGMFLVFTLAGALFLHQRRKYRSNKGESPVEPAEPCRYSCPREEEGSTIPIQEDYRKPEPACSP", "experimental": "(§1) The hCD27 variants that were tested are listed. Amino acids correspond to the UniProt P26842-1 sequence. Amino acids 1-20 constitute the signal peptide. Binding is expressed as the geometric mean of the FITC signal, relative to antibody binding to hCD27, which was set at 100%.\n(§2) The ability of several anti-hCD27 antibodies to bind to a series of hCD27 alanine mutants was determined using CHO-K1 cells, transiently transfected pCI-neo empty vector, pCI-neo.hCD27 and several pCI-neo.CD27Ala mutant constructs.\n(§3) Detached cells were transferred to 96 wells round-bottomed well plates at approximately 1.2×10⁵ cells/well. After spinning down the cells, discarding the supernatants and re-suspending the cells in the residual volume, the primary antibodies were added and incubated for 30 minutes at 4° C. Cells were washed three times with DPBS/BSA 1%, followed by centrifugation, discarding of the supernatants and re-suspension in the residual volume. […] After washing once, antibody binding was detected using the HTS plate reader (FACS Canto II) and FlowJo software for data analysis. Debris, dead cells and doublets were excluded from the analysis. Binding was expressed as the geometric mean of the FITC signal, relative to antibody binding to hCD27, which was set at 100%."}, "R37A": {"biological_target": "T2, R37A", "T2 construct": "also called hCD27 R37A", "T2 receptor chain": "T1 receptor chain with R37A, A88N", "experimental": "as §1, §2, §3"}, "G89A": {"biological_target": "T3, G89A", "T3 construct": "also called hCD27 G89A", "T3 receptor chain": "T1 receptor chain with A88N, G89A", "experimental": "as §1, §2, §3"}, "S63A": {"biological_target": "T4, S63A", "T4 construct": "also called hCD27 S63A", "T4 receptor chain": "T1 receptor chain with S63A, A88N", "experimental": "as §1, §2, §3"}, "R93A": {"biological_target": "T5, R93A", "T5 construct": "also called hCD27 R93A", "T5 receptor chain": "T1 receptor chain with A88N, R93A", "experimental": "as §1, §2, §3"}, "P44A": {"biological_target": "T6, P44A", "T6 construct": "also called hCD27 P44A", "T6 receptor chain": "T1 receptor chain with P44A, A88N", "experimental": "as §1, §2, §3"}, "I46A": {"biological_target": "T7, I46A", "T7 construct": "also called hCD27 I46A", "T7 receptor chain": "T1 receptor chain with I46A, A88N", "experimental": "as §1, §2, §3"}, "V49A": {"biological_target": "T8, V49A", "T8 construct": "also called hCD27 V49A", "T8 receptor chain": "T1 receptor chain with V49A, A88N", "experimental": "as §1, §2, §3"}, "E9A": {"biological_target": "T9, E9A", "T9 construct": "also called hCD27 E9A", "T9 receptor chain": "T1 receptor chain with E9A, A88N", "experimental": "as §1, §2, §3"}, "W90A": {"biological_target": "T10, W90A", "T10 construct": "also called hCD27 W90A", "T10 receptor chain": "T1 receptor chain with A88N, W90A", "experimental": "as §1, §2, §3"}}, "note": "Positions count from the first letter of the chain named."}
{"binder": "B1", "values": [{"measurement": "binding, WT hCD27 = 100 (GM FITC)", "setting": "N88A", "value": 132, "unit": "%"}, {"measurement": "binding, WT hCD27 = 100 (GM FITC)", "setting": "R37A", "value": 106, "unit": "%"}, {"measurement": "binding, WT hCD27 = 100 (GM FITC)", "setting": "G89A", "value": 97.4, "unit": "%"}, {"measurement": "binding, WT hCD27 = 100 (GM FITC)", "setting": "S63A", "value": 104, "unit": "%"}, {"measurement": "binding, WT hCD27 = 100 (GM FITC)", "setting": "R93A", "value": 131, "unit": "%"}, {"measurement": "binding, WT hCD27 = 100 (GM FITC)", "setting": "P44A", "value": 68.7, "unit": "%"}, {"measurement": "binding, WT hCD27 = 100 (GM FITC)", "setting": "I46A", "value": 81.9, "unit": "%"}, {"measurement": "binding, WT hCD27 = 100 (GM FITC)", "setting": "V49A", "value": 69, "unit": "%"}, {"measurement": "binding, WT hCD27 = 100 (GM FITC)", "setting": "E9A", "value": 58.5, "unit": "%"}, {"measurement": "binding, WT hCD27 = 100 (GM FITC)", "setting": "W90A", "value": 93.8, "unit": "%"}]}
